Test: yeast display, Sf9 membrane polyspecificity reagent, FACS + sequencing; frameworks hold sequencing errors
Procedure, shortened: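 In a synthetic yeast display library (Saccharomyces cerevisiae BJ5465), nanobody expression was induced with galactose for 36–48 hours. FACS gates were set low and high (top ~1%) using anti-HA fluorescence for expression and streptavidin fluorescence for binding of the Sf9 membrane reagent. Each polyreactivity label is drawn from the gate of origin.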
With “QVQLVESGGGLVHAGGSLRLSCAASGITFEGNAMGWNRQAPGTERELVAAIRSSGTSTYYADSVKGRFTFSRDNEKKTVYLQMNSLKPEDTAVYYCNRARSSSRYDYWGEGTQVTVSS” the “polyreactivity (PSR sort gate)” value was “low polyreactivity”. With “QVQLVESGGGLVHAGGSLRLSCAASGITFVYYAMGWYRQAPGKERELVAAIDDTGTTYYADSVKGRFTISRDNAKNTVYLQMNSLKPEDTAVYYCAADDWGWFFGGGDYWGQGTQVTVSS” the “polyreactivity (PSR sort gate)” value was “high polyreactivity”. In the case of “QVQLVESGGGLVHAGGSLRLSCAASGKIFGLYAMGWYRKAPGKERELVAAISYRTDSTYADSVKGRFTISRDNAKNTVYLQMNSLKPEDTAVYYCAADLRVSVRYYYWGQGTQVTVSS”, the “polyreactivity (PSR sort gate)” value is reported as “low polyreactivity”. For “QVQLVESGGGLVHAGGSLRLSCAASGLTFGAYAMGWYRQAPGEERELVATITNSGRTYYADSVKGRFTISRDNAKNTVYLQMNSLKPEDTAVYYCAAQPDGQAMDHWGQGTQVTVSS”, the “polyreactivity (PSR sort gate)” value was “low polyreactivity”. With “QVQLVESGGGLVHAGGSLRLSCAASGLTFVDNAMGWYRQAPGKERELVAAITKRGGRTYYADSVKGRFTISRDNAKNTVYSQMNSLKPEDTAVYYCAREAGNDSSRRLDYWGQGTQVTVSS” the “polyreactivity (PSR sort gate)” value was “low polyreactivity”. For “QVQLVESGGGLVHAGGSLRLSCAASGRLFYPYAMGWYRQAPGKERELVAAITYITGSTYADSVKGRFTISRDNAKNTVYLQMNSLKPEDTAVYYCAADYESGDYWGQGTQVTVSS”, the “polyreactivity (PSR sort gate)” value was “low polyreactivity”. For “QVQLVESGGGLVHAGGSLRLSCAASGRTFATNTIGWYRQAPGKERELVAAITFSGGSTYYADSVKGRFTISRDTAKIPRYLQMNCLKPEDNEVYYCNVRSPYYSYRYRYGYWGQGSQVTVSS”, the “polyreactivity (PSR sort gate)” value was “high polyreactivity”. With “QVQLVESGGGLVHAGGSLRLSCAASGRTFATYAMGWYRQAPGKERELVAAITSGGSTYYADSVKGRFTISRDNAKNTVYLQMNSLKPEDTAVYYCAADLSTYRRGFDYWGQGTHVTVSS” the “polyreactivity (PSR sort gate)” value was “high polyreactivity”. With “QVQLVESGGGLVHAGGSLRLSCAASGRTFGIYTMGWYRQAPGKERELVASTYYADSVKGRFTISRDNAKNTVYLQMNSLKPEDTAVYYCNVERLKKSQVWYGYPNDYWGQGTQVTVSS” the “polyreactivity (PSR sort gate)” value was “low polyreactivity”. For “QVQLVESGGGLVHAGGSLRLSCAASGRTFWAYAMGWYRQAPGKERELVAAISASRGSTYYADSVKGRFTISRDTAKNTVYLEMNSLTAEDTAVYYCRLVSNGRLYDYWGQGTQATVSS”, the “polyreactivity (PSR sort gate)” value was “low polyreactivity”. For “QVQLVESGGGLVHAGGSLRLSCAASGRTFYPNVMGWYRQAPGKERELVAAIRARGGSTYYADSVKGRFTISRDNAKNTVYLQMNSLKPEDTAVYYCARDTGDYLQFDYWGQGTQVTVSS”, the “polyreactivity (PSR sort gate)” value was “high polyreactivity”. With “QVQLVESGGGLVHAGGSLRLSCAASGRTIGYYAMGWYRQAPGKERELVAAISWSGGSTYYADSVKGRFTISRDIAKNTVYLQMNSLKPEATAVYYCAAKYSFRAAHYYYWGQGTQVTVSS” the “polyreactivity (PSR sort gate)” value was “high polyreactivity”. In the case of “QVQLVESGGGLVHAGGSLRLSCAASGRTLWGYVMGWYREAPGKERELVAVITASGGSTYYADSVNGRFTISRDNAKNTVYLQMYSLKPEDTAVYYCNADSRAERYFWSFVENDYWVQGTQVTVSS”, the “polyreactivity (PSR sort gate)” value is reported as “low polyreactivity”. With “QVQLVESGGGLVHAGGSLRLSCAASGRTLWYYTMGWYRQAPGKEMELVADITRGTSTNYADSVKGRFTISRDNAKNTVYLQMNILKPEDTAVYYCNRAHGRSRYSRDYDSWGQGTQVTVSS” the “polyreactivity (PSR sort gate)” value was “low polyreactivity”. In the case of “QVQLVESGGGLVHAGGSLRLSCAASGSIFAYYAMGWYRQAPGKERELVARITYSTDGTYYADSVKGRFTISRDNAKNTVYLQMNSLKPEDTAVYFCAVDTWWGFKRYKFDYWGQGTQVTVSS”, the “polyreactivity (PSR sort gate)” value is reported as “low polyreactivity”. With “QVQLVESGGGLVHAGGSLRLSCAASGSIFGIYTMGWYRQAPGKERELVARINLSGGITYYADSVKGRFKISRDNAKNTVYLQMNSLKPEDTAVYYCNARTVNFPYDYWGQGTQVTVSS” the “polyreactivity (PSR sort gate)” value was “low polyreactivity”. With “QVQLVESGGGLVHAGGSLRLSCAASGSIFGVNARGWYRPAPGKERELVAAISSTGSRTYYADSVQGRFTISRDNAKNTVYLQRNSLKPEETAVYYCAAYLTRYGAYYWGQGTQVTVSS” the “polyreactivity (PSR sort gate)” value was “high polyreactivity”. For “QVQLVESGGGLVHAGGSLRLSCAASGSIFGWYVMGWYRQAPGKERELVAAISSVGSTYYADSVKGRFTISRDNAKNTVCLQMNSLKPEDTAVYYCAKLRYPYLFWDDSEYWGQGTQVTVSS”, the “polyreactivity (PSR sort gate)” value was “low polyreactivity”. With “QVQLVESGGGLVHAGGSLRLSCAASGSIFHFNAMGWYRQAPGKERELVARISIGGGSTYYADSVKGRFTISRDNAKNTVYFQMNSLKPEDTAVYSCAVDGSPRNKYDYWGQGTQVTVSS” the “polyreactivity (PSR sort gate)” value was “high polyreactivity”. For “QVQLVESGGGLVHAGGSLRLSCAASGSTFFPYDMGWYRPEPGTERYFVAGISSDGGTSYADSVKGRFTISRDNAKNTVYLQMNSMKPEDTAVYDCAALQADGDRYPEFDLMDYWGQGSQVTVSS”, the “polyreactivity (PSR sort gate)” value was “low polyreactivity”. For “QVQLVESGGGLVHAGGSLRLSCAASGSTFSRYAMGWYRQAPWKERELVAAISWSGASTYYADSVKWRFTISRDNAKNTVYLQMNSLKPEDTSVYYCAKVARQNWFRYNYDYWGQGTQVTVSS”, the “polyreactivity (PSR sort gate)” value was “high polyreactivity”. In the case of “QVQLVESGGGLVHAGGSLRLSCAASGSTFVRNAMGWYRQAPGKERELVAAITSRGGSTYYADSVKGRFTISRDNAKNTVYLQMNSLKPEDTAVYYCAARFGVKRGQYDYWGQGTQVTVSS”, the “polyreactivity (PSR sort gate)” value is reported as “high polyreactivity”. In the case of “QVQLVESGGGLVHAGGSLRLSCAASGTIFYRNAMGWYRQAPGKERELVAAITSRGGRTYYADSVKGRFTISRDNAKNTVYLQMNSLKPEDTAVYDCNKRYVYSTSDYDYWGQGTQVTVSS”, the “polyreactivity (PSR sort gate)” value is reported as “high polyreactivity”. In the case of “QVQLVESGGGLVHAGGSLRLSCAASGYIFTRNMGWYRQAPGKERELVAAITWSGGSTYYADSVKGRFTISRDNAKNTVYLQINSLKPEDTAVYYCAADYGWSVGRRYYYWGQGTQVTVSS”, the “polyreactivity (PSR sort gate)” value is reported as “high polyreactivity”. In the case of “QVQLVESGGGLVHAGGSLRLSCAASGYIIGYYTMGWYRQAPGKERELVATIRSGGSTYYADSVKGRFTISRDNANNSVYLQINSLKPEDTAVYYCAKRVRRISEYGYWGQGTHVTVSS”, the “polyreactivity (PSR sort gate)” value is reported as “high polyreactivity”. For “QVQLVESGGGLVHAGGSLRLSCAASGYTFGNNAMGWYIQAPGKERELVASIRTNGGTTYYADSVKGRFTISRDNAKNTVYLQMNSLKPEDTAVYYCNAYRGYEYDYWGQGTQVTVSS”, the “polyreactivity (PSR sort gate)” value was “low polyreactivity”. For “QVQLVESGGGLVHAGGSLRLSCAASVSTFLFYAMGWYRQAPGKEREFVAAITWSGGSTYYADSVKGRFTISRDNAKNTVYLQMNSLKPEDTAVYYCNGYYVPTTGREFYFAFYYWGQGTQVTVSS”, the “polyreactivity (PSR sort gate)” value was “low polyreactivity”. In the case of “QVQLVESGGGLVHAGGSLRLSCAAYGRTFKYNAMGWNRQAPGKERELVAAISSRGGSTYYADSVKGRFTISRDNAKNTVYLQMNSLKPEDTAVYYCAIATSSSEYGYDYWGQGTQVTVSS”, the “polyreactivity (PSR sort gate)” value is reported as “high polyreactivity”. For “QVQLVESGGGLVHAGGSLRLSCADSGFTFGAYAMGWYRQAPGKERELVATITNSGRTYYADSVKGRFTISRDNAKNTVYLQMNSLNPEDTAVYYCAAQPDGQAMEHWGQGTQVTVSS”, the “polyreactivity (PSR sort gate)” value was “low polyreactivity”. With “QVQLVESGGGLVHAGGSLRLSCAPSAFTFAYYAMGWYRQAPGKEREFVAAITKGGGSTNYADSVKGRFTISRDNAKNTVYLQMYSLKPEDTAVYYSNADYFVWYIGRVFSRYGYWGQGTQVTVSS” the “polyreactivity (PSR sort gate)” value was “low polyreactivity”.
